Experimental data: patent EP4813396A2 (Amphivena Therapeutics, Inc., dated 2026)
Positions count from the first letter of the chain named. Each block holds one binder with its values, some of them ahead of it.

Experiments:
[1] = target: T1, human CD33 on cells (human, UniProt P20138 18-364); experiment: flow cytometry, titration on U-937 cells
T1 construct: whole, on cells; also called huCD33

[2] = target: T1, human CD33 on cells; experiment: flow cytometry, titration on HL-60 cells
[3] = target: T2, human CD3 on T cells (human, UniProt P07766 23-207); experiment: cell-based or functional assay
T2 sequence (P07766 23-207): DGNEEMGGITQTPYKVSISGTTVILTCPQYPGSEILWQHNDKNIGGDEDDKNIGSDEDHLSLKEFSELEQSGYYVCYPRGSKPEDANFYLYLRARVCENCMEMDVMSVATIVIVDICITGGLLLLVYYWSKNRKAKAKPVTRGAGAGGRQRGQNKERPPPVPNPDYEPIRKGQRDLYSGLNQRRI

[4] = target: cynomolgus CD33 on CHO cells (cynomolgus monkey); experiment: flow cytometry; KD on CHO-cynomolgus CD33 cells divided by KD on CHO-human CD33 cells
[5] = target: T2, human CD3 on T cells; experiment: flow cytometry, titration on human CD3+ T cells (Jurkat per paragraph 124/paragraph 125)
[6] = target: T1, human CD33 on cells; experiment: flow cytometry, titration on KG-1 cells
[7] = target: T2, human CD3 on T cells; experiment: flow cytometry, human T-cells (as headed in Table 10)
[8] = target: T1, human CD33 on cells; experiment: flow cytometry, HL-60 cells
[9] = target: T1, human CD33 on cells; experiment: cell-based or functional assay

T1 sequence (P20138 18-364): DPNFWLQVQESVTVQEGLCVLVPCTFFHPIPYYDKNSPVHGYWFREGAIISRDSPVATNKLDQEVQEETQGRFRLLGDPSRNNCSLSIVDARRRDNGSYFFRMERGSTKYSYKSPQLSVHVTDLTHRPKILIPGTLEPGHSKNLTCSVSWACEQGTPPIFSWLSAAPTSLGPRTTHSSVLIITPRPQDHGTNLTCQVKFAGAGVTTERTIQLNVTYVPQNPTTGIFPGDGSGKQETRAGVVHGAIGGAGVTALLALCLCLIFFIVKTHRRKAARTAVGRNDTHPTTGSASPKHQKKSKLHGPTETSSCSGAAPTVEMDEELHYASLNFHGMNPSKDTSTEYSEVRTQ

Kd [1]: 80.2 nM
Kd [2]: 9.7 nM
CD69 Induction EC50 (pM) [3]: 225 pM
T cell Proliferation in PBMC EC50 (pM) [3]: 500 pM
KD ratio cynoCD33/ huCD33 [4]: 0.9
Kd [5]: 2.1 nM
Kd [6]: 25.1 nM
Kd [7]: 2.1 nM
Kd [8]: 9.7 nM
B1: CD33/CD3 tandem diabody 21 (bispecific antibody)
chain: DIQMTQSPSSLSASVGDRVTITCRSSTGAVTTSNYANWVQQKPGKAPKALIGGTNKRAPGVPSRFSGSLIGDKATLTISSLQPEDFATYYCALWYSNLWVFGQGTKVEIKGGSGGSQVQLVQSGAEVKKPGSSVKVSCKASGGTFSSYAISWVRQAPGQGLEWMGGIYPIFGSANYAQKFQGRVTITADESTSTAYMELSSLRSEDTAVYYCAREYYYDSSEWAFDIWGQGTLVTVSSGGSGQSVLTQPPSASGTPGQRVTISCSGSSSNIGSNIVNWYQQLPGTAPKLLIYSNNQRPSGVPDRFSGSKSGTSASLAISGLQSEDEADYYCAAWDDSLKGYVFGGGTKLTVLGGSGGSEVQLVESGGGLVQPGGSLRLSCAASGFTFSTYAMNWVRQAPGKGLEWVGRIRSKYNNYATYYADSVKDRFTISRDDSKNSLYLQMNSLKTEDTAVYYCARHGNFGNSYVSYFAYWGQGTLVTVSSAAAGSHHHHHH
notes: Non-covalent homodimer; domain order 1; also called TandAb 21
EC50 on HL-60 [pM] (cytotoxicity) [9]: 7.6 pM

Kd [1]: 8.6 nM
Kd [2]: 0.7 nM
CD25 Induction EC50 (pM) [3]: 10 pM
CD69 Induction EC50 (pM) [3]: 4 pM
T cell Proliferation in PBMC EC50 (pM) [3]: 7 pM
KD ratio cynoCD33/ huCD33 [4]: 0.6
Kd [5]: 4.1 nM
Kd [6]: 2 nM
Kd [7]: 4.1 nM
Kd [8]: 0.7 nM
B2: CD33/CD3 tandem diabody 22 (bispecific antibody)
chain: B1 chain with A149G, Y168I, N175H, I275T, N277K, P298S, T312S, K339N
notes: Non-covalent homodimer; domain order 1; also called TandAb 22
EC50 on HL-60 [pM] (cytotoxicity) [9]: 3.2 pM

Kd [1]: 1.8 nM
Kd [2]: 0.3 nM
KD ratio cynoCD33/ huCD33 [4]: 0.6
Kd [5]: 2.4 nM
Kd [6]: 0.5 nM
B3: CD33/CD3 tandem diabody 08 (bispecific antibody)
chain: QSVLTQPPSASGTPGQRVTISCSGSRSNIGSNTVNWYQQLPGTAPKLLIYGNNQRPSGVPDRFSGSKSGSSASLAISGLQSEDEADYYCATWDDSLIGWVFGGGTKLTVLGGSGGSEVQLVESGGGLVQPGGSLRLSCAASGFTFSTYAMNWVRQAPGKGLEWVGRIRSKYNNYATYYADSVKDRFTISRDDSKNSLYLQMNSLKTEDTAVYYCARHGNFGNSYVSYFAYWGQGTLVTVSSGGSGGSDIQMTQSPSSLSASVGDRVTITCRSSTGAVTTSNYANWVQQKPGKAPKALIGGTNKRAPGVPSRFSGSLIGDKATLTISSLQPEDFATYYCALWYSNLWVFGQGTKVEIKGGSGGSQVQLVQSGAEVKKPGASVKVSCKASGYTFTSYDINWVRQAPGQGLEWMGWMNPNSGNTGFAQKFQGRVTMTRDTSTSTVYMELSSLRSEDTAVYYCARDRANTDFSYGMDVWGQGTLVTVSSAAAGSHHHHHH
notes: Non-covalent homodimer; domain order 3 VL(CD33)-L1-VH(CD3)-L2-VL(CD3)-L3-VH(CD33); also called TandAb 08; tandem diabody 8
EC50 on HL-60 [pM] (cytotoxicity) [9]: 1.8 pM

Kd [1]: 15.1 nM
Kd [2]: 3.4 nM
KD ratio cynoCD33/ huCD33 [4]: 3.1
Kd [5]: 1.9 nM
Kd [6]: 16.3 nM
B4: CD33/CD3 tandem diabody 18 (bispecific antibody)
chain: EVQLVESGGGLVQPGGSLRLSCAASGFTFSTYAMNWVRQAPGKGLEWVGRIRSKYNNYATYYADSVKDRFTISRDDSKNSLYLQMNSLKTEDTAVYYCARHGNFGNSYVSYFAYWGQGTLVTVSSGGSGGSQSVLTQPPSVSGAPGQRVTISCTGSSSNIGAGYDVHWYQQLPGTAPKLLIYGNSNRPSGVPDRFSGSKSGTSASLAITGLQAEDEADYYCQSYDSSLSDVVFGGGTKLTVLGGSGQVQLVQSGAEVKKPGESLKISCKGSGYSFTSYWIGWVRQMPGKGLEWMGIIYPGDSDTRYSPSFQGQVTISADKSISTAYLQWSSLKASDTAMYYCARHKRGSDAFDIWGQGTTVTVSSGGSGGSDIQMTQSPSSLSASVGDRVTITCRSSTGAVTTSNYANWVQQKPGKAPKALIGGTNKRAPGVPSRFSGSLIGDKATLTISSLQPEDFATYYCALWYSNLWVFGQGTKVEIKAAAGSHHHHHH
notes: Non-covalent homodimer; domain order 2 VH(CD3)-L1-VL(CD33)-L2-VH(CD33)-L3-VL(CD3); also called TandAb 18
EC50 on HL-60 [pM] (cytotoxicity) [9]: 6.3 pM

Kd [1]: 7.2 nM
Kd [2]: 4.1 nM
CD25 Induction EC50 (pM) [3]: 98 pM
CD69 Induction EC50 (pM) [3]: 75 pM
T cell Proliferation in PBMC EC50 (pM) [3]: 19 pM
KD ratio cynoCD33/ huCD33 [4]: 33.8
Kd [5]: 144 nM
Kd [6]: 7 nM
Kd [7]: 144 nM
Kd [8]: 4.1 nM
B5: CD33/CD3 tandem diabody 20 (bispecific antibody)
chain: DIQMTQSPSSLSASVGDRVTITCRSSTGAVTTSNYANWVQQKPGKAPKGLIGGTNKRAPGVPSRFSGSLIGTDFTLTISSLQPEDFATYYCALWYSNLWVFGQGTKVEIKGGSGGSQVQLVQSGAEVKKPGASVKVSCKASGYTFTSYYMHWVRQAPGQGLEWMGIINPSGGSTSYAQKFQGRVTMTRDTSTSTVYMELSSLRSEDTAVYYCARDVVPAAIDYYGMDVWGQGTTVTVSSGGSGQSVLTQPPSASGTPGQRVTISCSGSSSNIGSNTVNWYQQLPGTAPKLLIYSDNQRPSGVPDRFSGSKSGSSASLAISGLQSDDEADYYCATWDDSLNGAVFGGGTKLTVLGGSGGSEVQLVESGGGLVQPGGSLRLSCAASGFTFSTYAMNWVRQAPGKGLEWVGRIRSKYNNYATYYADSVKDRFTISRDDSKNSLYLQMNSLKTEDTAVYYCARHGNFGNSYVSWFAYWGQGTLVTVSS
notes: Non-covalent homodimer; domain order 1; also called TandAb 20
EC50 on HL-60 [pM] (cytotoxicity) [9]: 10 pM

Kd [1]: 1.7 nM
Kd [2]: 0.5 nM
CD25 Induction EC50 (pM) [3]: 10 pM
CD69 Induction EC50 (pM) [3]: 6 pM
T cell Proliferation in PBMC EC50 (pM) [3]: 6 pM
KD ratio cynoCD33/ huCD33 [4]: 0.8
Kd [5]: 1.9 nM
Kd [6]: 1 nM
Kd [7]: 1.9 nM
Kd [8]: 0.5 nM
B6: CD33/CD3 tandem diabody 10 (bispecific antibody)
chain: DIQMTQSPSSLSASVGDRVTITCRSSTGAVTTSNYANWVQQKPGKAPKGLIGGTNKRAPGVPSRFSGSLIGDKATLTISSLQPEDFATYYCALWYSNLWVFGQGTKVEIKGGSGGSQVQLVQSGAEVKKPGASVKVSCKASGYTFTSYDINWVRQAPGQGLEWMGWMNPNSGNTGFAQKFQGRVTMTRDTSTSTVYMELSSLRSEDTAVYYCARDRANTDYSFGMDVWGQGTLVTVSSGGSGQSVLTQPPSASGTPGQRVTISCSGSRSNIGSNTVNWYQQLPGTAPKLLIYGNNQRPSGVPDRFSGSKSGTSASLAISGLQSEDEADYYCATWDDSLIGWVFGGGTKLTVLGGSGGSEVQLVESGGGLVQPGGSLRLSCAASGFTFSTYAMNWVRQAPGKGLEWVGRIRSKYNNYATYYADSVKDRFTISRDDSKNSLYLQMNSLKTEDTAVYYCARHGNFGNSYVSWFAYWGQGTLVTVSSAAAGSHHHHHH
notes: Non-covalent homodimer; domain order 1; also called TandAb 10
EC50 on HL-60 [pM] (cytotoxicity) [9]: 7 pM

Kd [1]: 0.6 nM
Kd [2]: 0.3 nM
CD25 Induction EC50 (pM) [3]: 11 pM
CD69 Induction EC50 (pM) [3]: 5 pM
T cell Proliferation in PBMC EC50 (pM) [3]: 6 pM
KD ratio cynoCD33/ huCD33 [4]: 1.2
Kd [5]: 2.6 nM
Kd [6]: 0.5 nM
Kd [7]: 2.6 nM
Kd [8]: 0.3 nM
B7: CD33/CD3 tandem diabody 11 (bispecific antibody)
chain: B6 chain with F223L
notes: Non-covalent homodimer; domain order 1; also called TandAb 11
EC50 on HL-60 [pM] (cytotoxicity) [9]: 5.9 pM

Kd [1]: 0.9 nM
Kd [2]: 0.2 nM
CD25 Induction EC50 (pM) [3]: 42 pM
CD69 Induction EC50 (pM) [3]: 27 pM
T cell Proliferation in PBMC EC50 (pM) [3]: 4 pM
KD ratio cynoCD33/ huCD33 [4]: 1.1
Kd [5]: 69.8 nM
Kd [6]: 0.3 nM
Kd [7]: 69.8 nM
Kd [8]: 0.2 nM
B8: CD33/CD3 tandem diabody 02 (bispecific antibody)
chain: B6 chain with S63A, L69G, I70S, D72T, K73D, A74F, N218V, S222Y, F223Y
notes: Non-covalent homodimer; domain order 1; also called TandAb 02; tandem diabody 2
EC50 on HL-60 [pM] (cytotoxicity) [9]: 0.5 pM

Kd [1]: 2.2 nM
Kd [2]: 0.5 nM
CD25 Induction EC50 (pM) [3]: 11 pM
CD69 Induction EC50 (pM) [3]: 7 pM
T cell Proliferation in PBMC EC50 (pM) [3]: 9 pM
KD ratio cynoCD33/ huCD33 [4]: 1
Kd [5]: 2.4 nM
Kd [6]: 0.3 nM
Kd [7]: 2.4 nM
Kd [8]: 0.5 nM
B9: CD33/CD3 tandem diabody 09 (bispecific antibody)
chain: B6 chain with Y221F, F223Y, T312S
notes: Non-covalent homodimer; domain order 1; also called TandAb 09; tandem diabody 9
EC50 on HL-60 [pM] (cytotoxicity) [9]: 6.8 pM

Kd [1]: 0.9 nM
Kd [2]: 0.4 nM
CD25 Induction EC50 (pM) [3]: 6 pM
CD69 Induction EC50 (pM) [3]: 7 pM
T cell Proliferation in PBMC EC50 (pM) [3]: 7 pM
KD ratio cynoCD33/ huCD33 [4]: 1.1
Kd [5]: 1.3 nM
Kd [6]: 0.3 nM
Kd [7]: 1.3 nM
Kd [8]: 0.4 nM
B10: CD33/CD3 tandem diabody 15 (bispecific antibody)
chain: B6 chain with G49A, W469Y
notes: Non-covalent homodimer; domain order 1; also called TandAb 15
EC50 on HL-60 [pM] (cytotoxicity) [9]: 1.8 pM

Kd [1]: 1.7 nM
Kd [2]: 0.5 nM
CD25 Induction EC50 (pM) [3]: 94 pM
CD69 Induction EC50 (pM) [3]: 62 pM
T cell Proliferation in PBMC EC50 (pM) [3]: 44 pM
KD ratio cynoCD33/ huCD33 [4]: 1.1
Kd [5]: 79.3 nM
Kd [6]: 0.5 nM
Kd [7]: 79.3 nM
Kd [8]: 0.5 nM
B11: CD33/CD3 tandem diabody 04 (bispecific antibody)
chain: B6 chain with S63A, L69G, I70S, D72T, K73D, A74F, F223L
notes: Non-covalent homodimer; domain order 1; also called TandAb 04; tandem diabody 4
EC50 on HL-60 [pM] (cytotoxicity) [9]: 1.8 pM

Kd [1]: 8.9 nM
Kd [2]: 1.1 nM
CD25 Induction EC50 (pM) [3]: 117 pM
CD69 Induction EC50 (pM) [3]: 87 pM
T cell Proliferation in PBMC EC50 (pM) [3]: 63 pM
KD ratio cynoCD33/ huCD33 [4]: 0.6
Kd [5]: 81.9 nM
Kd [6]: 1.8 nM
Kd [7]: 81.9 nM
Kd [8]: 1.1 nM
B12: CD33/CD3 tandem diabody 03 (bispecific antibody)
chain: B6 chain with S63A, L69G, I70S, D72T, K73D, A74F
notes: Non-covalent homodimer; domain order 1; also called TandAb 03; tandem diabody 3
EC50 on HL-60 [pM] (cytotoxicity) [9]: 3.6 pM

Kd [1]: 7.1 nM
Kd [2]: 0.6 nM
CD25 Induction EC50 (pM) [3]: 92 pM
CD69 Induction EC50 (pM) [3]: 91 pM
T cell Proliferation in PBMC EC50 (pM) [3]: 89 pM
KD ratio cynoCD33/ huCD33 [4]: 0.7
Kd [5]: 94.2 nM
Kd [6]: 0.9 nM
Kd [7]: 94.2 nM
Kd [8]: 0.6 nM
B13: CD33/CD3 tandem diabody 01 (bispecific antibody)
chain: B6 chain with S63A, L69G, I70S, D72T, K73D, A74F, Y221F, F223Y, T312S
notes: Non-covalent homodimer; domain order 1 VL(CD3)-L1-VH(CD33)-L2-VL(CD33)-L3-VH(CD3); also called TandAb 01; tandem diabody 1
EC50 on HL-60 [pM] (cytotoxicity) [9]: 1.9 pM
